PMC6548343 (Journal of Molecular Cell Biology, 2018)
Where “and” joins values, the source holds several entries; their conditions need not be identical. Equal values may be shown once.

Biological target: the molecule itself
Assay: EM classification and 3D reconstruction; INO80 sub-complexes and separated Rvb1/Rvb2 rings in the Mono Q fraction of the Ino80-2×FLAG purification

B1: Rvb1/Rvb2 (complex, S. cerevisiae)
chain 1: MVAISEVKENPGVNSSNSGAVTRTAAHTHIKGLGLDESGVAKRVEGGFVGQIEAREACGVIVDLIKAKKMSGRAILLAGGPSTGKTALALAISQELGPKVPFCPLVGSELYSVEVKKTETLMENFRRAIGLRIKETKEVYEGEVTELTPEDAENPLGGYGKTISHVIVGLKSAKGTKTLRLDPTIYESIQREKVSIGDVIYIEANTGAVKRVGRSDAYATEFDLETEEYVPLPKGEVHKKKEIVQDVTLHDLDVANARPQGGQDVISMMGQLLKPKKTEITEKLRQEVNKVVAKYIDQGVAELIPGVLFIDEVNMLDIEIFTYLNKALESNIAPVVVLASNRGMTTVRGTEDVISPHGVPPDLIDRLLIVRTLPYDKDEIRTIIERRATVERLQVESSALDLLATMGTETSLRYALQLLAPCGILAQTSNRKEIVVNDVNEAKLLFLDAKRSTKILETSANYL
chain 2: MSIQTSDPNETSDLKSLSLIAAHSHITGLGLDENLQPRPTSEGMVGQLQARRAAGVILKMVQNGTIAGRAVLVAGPPSTGKTALAMGVSQSLGKDVPFTAIAGSEIFSLELSKTEALTQAFRKSIGIKIKEETELIEGEVVEIQIDRSITGGHKQGKLTIKTTDMETIYELGNKMIDGLTKEKVLAGDVISIDKASGKITKLGRSFARSRDYDAMGADTRFVQCPEGELQKRKTVVHTVSLHEIDVINSRTQGFLALFTGDTGEIRSEVRDQINTKVAEWKEEGKAEIVPGVLFIDEVHMLDIECFSFINRALEDEFAPIVMMATNRGVSKTRGTNYKSPHGLPLDLLDRSIIITTKSYNEQEIKTILSIRAQEEEVELSSDALDLLTKTGVETSLRYSSNLISVAQQIAMKRKNNTVEVEDVKRAYLLFLDSARSVKYVQENESQYIDDQGNVQISIAKSADPDAMDTTE
notes: Rvb1, AAA+ ATPase subunit, S. cerevisiae; Rvb2, AAA+ ATPase subunit, S. cerevisiae; Seen as a hexameric ring in INO80 and as free hexamers and dodecamers; The fitted models PDB 2XSZ and 5OAF are of the human proteins; also called Rvb1/Rvb2 hexameric ring; Rvb1-Rvb2 ring; source: endogenous, S. cerevisiae, co-purified with tagged Ino80 (FLAG resin, Mono Q)
stoichiometry N: 12 and 6
